Assay results reported in the Immune Epitope Database (IEDB).

Assays:
[1] = molecular target: HLA-A*23:01; experiment: IEDB peptide-MHC binding, purified MHC/competitive/fluorescence; filed as Kd, often an IC50 or EC50 that approximates it; ≥ and ≤ were set here for values at or beyond the usual limits of such assays
[2] = molecular target: HLA-B*15:09; experiment: IEDB peptide-MHC binding, purified MHC/direct/fluorescence; filed as Kd, often an IC50 or EC50 that approximates it; ≥ and ≤ were set here for values at or beyond the usual limits of such assays; details: source organism: Influenza A virus (A/turkey/NC/17026/1988(H1N1))
[3] = molecular target: HLA-B*40:01; experiment: as above; details: source organism: Influenza A virus (A/swine/Chiai/77-10/2001(H3N1))
[4] = molecular target: HLA-B*27:05; experiment: as above; details: source organism: Influenza A virus (A/swine/Chiai/77-10/2001(H3N1))
[5] = molecular target: HLA-B*39:01; experiment: as above; details: source organism: Influenza A virus (A/turkey/NC/17026/1988(H1N1))
[6] = molecular target: HLA-A*01:01; experiment: as above; details: source organism: Influenza A virus (A/swine/Chiai/77-10/2001(H3N1))
[7] = molecular target: HLA-B*08:02; experiment: as above; details: source organism: Influenza A virus (A/turkey/NC/17026/1988(H1N1))
[8] = molecular target: HLA-B*08:01; experiment: as above; details: source organism: Influenza A virus (A/turkey/NC/17026/1988(H1N1))
[9] = molecular target: HLA-A*26:01; experiment: as above; details: source organism: Influenza A virus (A/turkey/NC/17026/1988(H1N1))
[10] = molecular target: HLA-B*07:02; experiment: as above; details: source organism: Influenza A virus (A/swine/Chiai/77-10/2001(H3N1))
[11] = molecular target: HLA-B*15:01; experiment: as above; details: source organism: Influenza A virus (A/swine/Chiai/77-10/2001(H3N1))
[12] = molecular target: HLA-B*58:01; experiment: as above; details: source organism: Influenza A virus (A/swine/Chiai/77-10/2001(H3N1))
[13] = molecular target: HLA-B*18:01; experiment: as above; details: source organism: Influenza A virus (A/swine/Chiai/77-10/2001(H3N1))
[14] = molecular target: HLA-A*69:01; experiment: as above; details: source organism: Influenza A virus (A/swine/Chiai/77-10/2001(H3N1))
[15] = molecular target: HLA-B*57:01; experiment: as above; details: source organism: Influenza A virus (A/swine/Chiai/77-10/2001(H3N1))
[16] = molecular target: HLA-B*48:01; experiment: as above; details: source organism: Influenza A virus (A/swine/Chiai/77-10/2001(H3N1))
[17] = molecular target: HLA-A*03:01; experiment: as above; details: source organism: Influenza A virus (A/swine/Chiai/77-10/2001(H3N1))
[18] = molecular target: HLA-A*02:01; experiment: as above; details: source organism: Influenza A virus (A/swine/Chiai/77-10/2001(H3N1))
[19] = molecular target: HLA-B*46:01; experiment: as above; details: source organism: Influenza A virus (A/swine/Chiai/77-10/2001(H3N1))
[20] = molecular target: HLA-A*31:01; experiment: as above; details: source organism: Influenza A virus (A/swine/Chiai/77-10/2001(H3N1))
[21] = molecular target: HLA-B*15:17; experiment: as above; details: source organism: Influenza A virus (A/swine/Chiai/77-10/2001(H3N1))
[22] = molecular target: HLA-A*11:01; experiment: IEDB peptide-MHC binding, purified MHC/competitive/fluorescence; filed as Kd, often an IC50 or EC50 that approximates it; ≥ and ≤ were set here for values at or beyond the usual limits of such assays; details: source organism: Influenza A virus
[23] = molecular target: HLA-A*80:01; experiment: as above; details: source organism: Influenza A virus
[24] = molecular target: HLA-B*53:01; experiment: IEDB peptide-MHC binding, purified MHC/competitive/fluorescence; ≥ and ≤ were set here for values at or beyond the usual limits of such assays; details: source organism: Callithrix jacchus
[25] = molecular target: HLA-B*07:02; experiment: as above; details: source organism: Callithrix jacchus
[26] = molecular target: HLA-B*39:01; experiment: IEDB peptide-MHC binding, purified MHC/competitive/fluorescence; filed as Kd, often an IC50 or EC50 that approximates it; ≥ and ≤ were set here for values at or beyond the usual limits of such assays; details: source organism: Mycobacterium tuberculosis C
[27] = molecular target: HLA-A*02:16; experiment: as above; details: source organism: Mycobacterium tuberculosis C
[28] = molecular target: HLA-A*02:19; experiment: as above; details: source organism: Mycobacterium tuberculosis C
[29] = molecular target: HLA-B*51:01; experiment: as above; details: source organism: Mycobacterium tuberculosis C
[30] = molecular target: HLA-A*26:01; experiment: as above; details: source organism: Mycobacterium tuberculosis C
[31] = molecular target: HLA-A*02:03; experiment: as above; details: source organism: Mycobacterium tuberculosis C
[32] = molecular target: HLA-B*15:01; experiment: as above; details: source organism: Mycobacterium tuberculosis C
[33] = molecular target: HLA-A*02:11; experiment: as above; details: source organism: Mycobacterium tuberculosis C
[34] = molecular target: HLA-B*18:01; experiment: as above; details: source organism: Mycobacterium tuberculosis C
[35] = molecular target: HLA-A*69:01; experiment: as above; details: source organism: Mycobacterium tuberculosis C
[36] = molecular target: HLA-B*57:01; experiment: as above; details: source organism: Mycobacterium tuberculosis C
[37] = molecular target: HLA-A*68:02; experiment: as above; details: source organism: Mycobacterium tuberculosis C
[38] = molecular target: HLA-A*24:03; experiment: as above; details: source organism: Mycobacterium tuberculosis C
[39] = molecular target: HLA-A*03:01; experiment: as above; details: source organism: Mycobacterium tuberculosis C
[40] = molecular target: HLA-A*02:01; experiment: as above; details: source organism: Mycobacterium tuberculosis C
[41] = molecular target: HLA-B*46:01; experiment: as above; details: source organism: Mycobacterium tuberculosis C
[42] = molecular target: HLA-B*15:17; experiment: as above; details: source organism: Mycobacterium tuberculosis C
[43] = molecular target: HLA-A*02:12; experiment: as above; details: source organism: Mycobacterium tuberculosis C
[44] = molecular target: HLA-A*29:02; experiment: as above; details: source organism: Mycobacterium tuberculosis C
[45] = molecular target: HLA-B*27:03; experiment: as above; details: source organism: Mycobacterium tuberculosis C

SYHNVDQLK
≥ 20 µM: Kd ([1]; source organism: Vibrio parahaemolyticus K5030)

VSFDQNLDY
0.117 µM: Kd [6]
0.0016 µM: Kd [21]
0.0184 µM: Kd [23]
6.5 µM: Kd [17]
0.019 µM: Kd [11]
≥ 20 µM: Kd [2] | Kd [3] | Kd [4] | Kd [5] | Kd [7] | Kd [8] | Kd [9] | Kd [10] | Kd [13] | Kd [14] | Kd [15] | Kd [16] | Kd [18] | Kd [19] | Kd [20]
0.0987 µM: Kd [22]
3.44 µM: Kd [12]

VPIAWAAA
≥ 20 µM: IC50 [24]
0.144 µM: IC50 [25]

SLVAIHLAC
0.443 µM: Kd [33]
≥ 20 µM: Kd [26] | Kd [27] | Kd [28] | Kd [29] | Kd ([1]; source organism: Mycobacterium tuberculosis C) | Kd [30] | Kd [31] | Kd [32] | Kd [34] | Kd [35] | Kd [36] | Kd [37] | Kd [38] | Kd [39] | Kd [40] | Kd [41] | Kd [42] | Kd [43] | Kd [44] | Kd [45]
